22 sequences from the Immune Epitope Database (IEDB) can be followed below.

Bounds are passed on as bounds.

Assay [1] deals with HLA-A*02:01. In words: IEDB peptide-MHC binding, cellular MHC/competitive/fluorescence; ≥ and ≤ were set here for values at or beyond the usual limits of such assays.
In another assay the target is HLA-A*02:02. The assay is described as above.
The target of a further assay is HLA-A*02:03. The description is as above.
Assay [2] has as its target HLA-A*02:06. Described as above.
Assay [3] addresses HLA-A*68:02. Put plainly: IEDB peptide-MHC binding, purified MHC/competitive/radioactivity; ≥ and ≤ were set here for values at or beyond the usual limits of such assays.
In assay [4] the target is HLA-A*68:02. Put plainly: IEDB peptide-MHC binding, cellular MHC/competitive/fluorescence; ≥ and ≤ were set here for values at or beyond the usual limits of such assays.
The target of assay [5] is HLA-A*02:06. Put plainly: IEDB peptide-MHC binding, purified MHC/competitive/radioactivity; ≥ and ≤ were set here for values at or beyond the usual limits of such assays.
Assay [6] has as its target HLA-A*02:01. The description is as above. The settings on record: source organism: Hepacivirus hominis.
[7] abbreviates: source organism: Vaccinia virus WR.
Setting [8] is: source organism: Hepacivirus hominis.
The mark [9] stands for this setting: source organism: Influenza A virus.

DTIESAKTKI: the IC50 (commonly the concentration that inhibits the measured activity by half) was 58.9 µM with HLA-A*02:01 [1] (setting [7]); 47.9 µM with HLA-A*02:02 (setting [7]); 50.5 µM with HLA-A*02:03 (setting [7]); at least 70 µM in the assay with HLA-A*02:06 [2] (setting [7]); 0.57 µM in the assay with HLA-A*68:02 [3] (setting [7]).

Regarding CVKYLLDNDI, the IC50 stood at 13 µM with HLA-A*02:01 [1] (setting [7]); 31.8 µM with HLA-A*02:02 (setting [7]); 5.67 µM in the assay with HLA-A*02:03 (setting [7]); 7.58 µM with HLA-A*02:06 [2] (setting [7]); 1.98 µM with HLA-A*68:02 [3] (setting [7]).

On to TAIRAGYSI, for which the IC50 with HLA-A*02:01 [1] (setting [7]) came to 26.6 µM; with HLA-A*02:02 (setting [7]), 14.5 µM; with HLA-A*02:03 (setting [7]), 9.2 µM; in the assay with HLA-A*02:06 [2] (setting [7]) it was 7.69 µM; with HLA-A*68:02 [3] (setting [7]) it was 0.125 µM.

In the case of KTNTKHCPKI, the IC50 with HLA-A*02:01 [1] (setting [7]) worked out at 36.5 µM; with HLA-A*02:02 (setting [7]), 33.8 µM; with HLA-A*02:03 (setting [7]) it was 10.9 µM; with HLA-A*68:02 [4] (setting [7]) it was 20 µM; in the assay with HLA-A*02:06 [5] (setting [7]), 0.234 µM.

Turning to DTCGASINIT, the IC50 in the assay with HLA-A*02:01 [1] (setting [7]) was 42.6 µM; with HLA-A*02:02 (setting [7]), 23.6 µM; in the assay with HLA-A*02:03 (setting [7]) it was at least 70 µM; with HLA-A*02:06 [2] (setting [7]), at least 70 µM; in the assay with HLA-A*68:02 [3] (setting [7]) it was 1.93 µM.

Consider ETAIRAGYSI, for which the IC50 came out at 5.99 µM in the assay with HLA-A*02:01 [1] (setting [7]); 25.8 µM in the assay with HLA-A*02:02 (setting [7]); 29.3 µM with HLA-A*02:03 (setting [7]); 17.8 µM with HLA-A*02:06 [2] (setting [7]); 0.134 µM with HLA-A*68:02 [3] (setting [7]).

With FANVISKIYT, the IC50 with HLA-A*02:01 [1] (setting [7]) was determined as 15.7 µM; in the assay with HLA-A*02:02 (setting [7]), 7.79 µM; with HLA-A*02:03 (setting [7]), 5.31 µM; in the assay with HLA-A*68:02 [4] (setting [7]), 5.49 µM; with HLA-A*02:06 [5] (setting [7]), 1.66 µM.

On to DTSPTKRCRL, for which the IC50 was at least 70 µM with HLA-A*02:01 [1] (setting [7]); 12.2 µM in the assay with HLA-A*02:02 (setting [7]); 37.1 µM with HLA-A*02:03 (setting [7]); 44.6 µM with HLA-A*02:06 [2] (setting [7]); 1.99 µM in the assay with HLA-A*68:02 [3] (setting [7]).

In the case of PVVYHDDDNT, the IC50 with HLA-A*02:01 [1] (setting [7]) stood at 11.7 µM; with HLA-A*02:02 (setting [7]) it was 9.14 µM; with HLA-A*02:03 (setting [7]), 26.8 µM; with HLA-A*68:02 [4] (setting [7]), 11.4 µM; with HLA-A*02:06 [5] (setting [7]), 1.35 µM.

For the sequence LLLGLLLLCV, the IC50 turned out to be 16.9 µM in the assay with HLA-A*02:02 (setting [8]); 10.3 µM in the assay with HLA-A*02:03 (setting [8]); 57.9 µM with HLA-A*68:02 [4] (setting [8]); 2.18 µM with HLA-A*02:01 [6]; 5 µM with HLA-A*02:06 [5] (setting [8]).

In the case of YTEAAAATCA, the IC50 was found to be 36.5 µM in the assay with HLA-A*02:01 [1] (setting [7]); 36.5 µM in the assay with HLA-A*02:02 (setting [7]); 16.1 µM with HLA-A*02:03 (setting [7]); 7.16 µM in the assay with HLA-A*02:06 [2] (setting [7]); 0.159 µM in the assay with HLA-A*68:02 [3] (setting [7]).

As for LTHGADPNA, the IC50 with HLA-A*02:01 [1] (setting [7]) was at least 70 µM; with HLA-A*02:02 (setting [7]), 19.4 µM; with HLA-A*02:03 (setting [7]) it was 10.5 µM; in the assay with HLA-A*02:06 [2] (setting [7]), 29.4 µM; with HLA-A*68:02 [3] (setting [7]), 1.37 µM.

For the sequence RQLTSNVDV, the IC50 was 8.98 µM in the assay with HLA-A*02:01 [1] (setting [7]); 50.8 µM with HLA-A*02:02 (setting [7]); 9.76 µM with HLA-A*02:03 (setting [7]); 18.8 µM with HLA-A*68:02 [4] (setting [7]); 0.17 µM with HLA-A*02:06 [5] (setting [7]).

On to STSNVITDQT, for which the IC50 with HLA-A*02:01 [1] (setting [7]) was 39.1 µM; in the assay with HLA-A*02:02 (setting [7]) it was 53.6 µM; with HLA-A*02:03 (setting [7]), at least 70 µM; with HLA-A*02:06 [2] (setting [7]), 10.8 µM; in the assay with HLA-A*68:02 [3] (setting [7]) it was 0.077 µM.

Take CTEETKRNI: the IC50 with HLA-A*02:01 [1] (setting [7]) was at least 70 µM; in the assay with HLA-A*02:02 (setting [7]) it was at least 70 µM; in the assay with HLA-A*02:03 (setting [7]), at least 70 µM; in the assay with HLA-A*02:06 [2] (setting [7]) it was at least 70 µM; with HLA-A*68:02 [3] (setting [7]), 3.92 µM.

In the case of TVQIIKLL, the IC50 with HLA-A*02:01 [1] (setting [9]) is 47.2 µM; with HLA-A*02:02 (setting [9]) it was 43.8 µM; with HLA-A*02:03 (setting [9]), at least 70 µM; with HLA-A*02:06 [2] (setting [9]) it was 51.8 µM; in the assay with HLA-A*68:02 [3] (setting [9]), 1.38 µM.

Turning to KVIKLVKSLV, the half-maximal inhibitory concentration (IC50) with HLA-A*02:01 [1] (setting [7]) came out at 24.9 µM; with HLA-A*02:02 (setting [7]), 14.3 µM; with HLA-A*02:03 (setting [7]), 13.4 µM; in the assay with HLA-A*68:02 [4] (setting [7]), 16.2 µM; in the assay with HLA-A*02:06 [5] (setting [7]), 2.15 µM.

Consider DVNSVQFSI, for which the IC50 was 11.5 µM in the assay with HLA-A*02:01 [1] (setting [7]); 10.4 µM in the assay with HLA-A*02:02 (setting [7]); 16.2 µM with HLA-A*02:03 (setting [7]); 16.9 µM with HLA-A*02:06 [2] (setting [7]); 0.026 µM with HLA-A*68:02 [3] (setting [7]).

In the case of NIREGTHVLL, the IC50 was found to be 13.4 µM with HLA-A*02:01 [1] (setting [7]); 8.88 µM with HLA-A*02:02 (setting [7]); 5.51 µM with HLA-A*02:03 (setting [7]); 34.6 µM in the assay with HLA-A*02:06 [2] (setting [7]); 2.53 µM with HLA-A*68:02 [3] (setting [7]).

For the sequence TAATKRYPGV, the IC50 with HLA-A*02:01 [1] (setting [7]) amounted to 43.1 µM; with HLA-A*02:02 (setting [7]), 25.5 µM; with HLA-A*02:03 (setting [7]), 10.5 µM; with HLA-A*02:06 [2] (setting [7]), 5.57 µM; in the assay with HLA-A*68:02 [3] (setting [7]), 0.96 µM.

In the case of EAFETQSGA, the IC50 was at least 70 µM with HLA-A*02:01 [1] (setting [7]); at least 70 µM with HLA-A*02:02 (setting [7]); at least 70 µM with HLA-A*02:03 (setting [7]); at least 50 µM in the assay with HLA-A*02:06 [2] (setting [7]); 0.104 µM with HLA-A*68:02 [3] (setting [7]).

As for PIPYSRVNHA, the IC50 turned out to be 54 µM with HLA-A*02:01 [1] (setting [7]); 11.7 µM with HLA-A*02:02 (setting [7]); 15.3 µM with HLA-A*02:03 (setting [7]); 48.3 µM with HLA-A*68:02 [4] (setting [7]); 1.45 µM in the assay with HLA-A*02:06 [5] (setting [7]).
